Columns and labels:
Conditions in all cases: Homo sapiens
[1] = compound: Cc1ccc(Cc2ccc(-c3csc(N)n3)cc2)cc1; assay: (§1) Activation of N-terminal (His)6 and Xpress-tagged LTA4H (unknown origin) expressed in Escherichia coli BL21(DE3) cells assessed as increase in aminopeptidase activity by measuring Km for p-nitroanilide release at 1 uM using L-Alanine-p-nitroanilide incubated for 10 mins by UV plate reader based assay
[2] = compound: Nc1nc(-c2ccc(Cc3ccc(C(F)(F)F)cc3)cc2)cs1; assay: as §1
[3] = compound: Nc1nc(-c2ccc(Cc3ccccc3)cc2)cs1; assay: as §1
[4] = compound: COc1ccc(Cc2ccc(-c3csc(N)n3)cc2)cc1; assay: (§2) Activation of N-terminal (His)6 and Xpress-tagged LTA4H (unknown origin) expressed in Escherichia coli BL21(DE3) cells assessed as increase in aminopeptidase activity by measuring Km for p-nitroanilide release at 5 uM using L-Alanine-p-nitroanilide incubated for 10 mins by UV plate reader based assay
[5] = compound: COc1ccc(Cc2ccccc2)cc1; assay: as §2
[6] = compound: Cc1ccc(Cc2ccc(-c3csc(N)n3)cc2)cc1; assay: as §2
[7] = compound: Nc1nc(-c2ccc(Cc3ccc(C(F)(F)F)cc3)cc2)cs1; assay: as §2
[8] = compound: Nc1nc(-c2ccc(Cc3ccccc3)cc2)cs1; assay: as §2
[9] = compound: COc1ccc(Cc2ccc(-c3csc(N)n3)cc2)cc1; assay: (§3) Activation of N-terminal (His)6 and Xpress-tagged LTA4H (unknown origin) expressed in Escherichia coli BL21(DE3) cells assessed as increase in aminopeptidase activity by measuring Km for p-nitroanilide release at 10 uM using L-Alanine-p-nitroanilide incubated for 10 mins by UV plate reader based assay
[10] = compound: COc1ccc(Cc2ccccc2)cc1; assay: as §3
[11] = compound: Cc1ccc(Cc2ccc(-c3csc(N)n3)cc2)cc1; assay: as §3
[12] = compound: Nc1nc(-c2ccc(Cc3ccc(C(F)(F)F)cc3)cc2)cs1; assay: as §3
[13] = compound: Nc1nc(-c2ccc(Cc3ccccc3)cc2)cs1; assay: as §3
[14] = compound: COc1ccc(Cc2ccc(-c3csc(N)n3)cc2)cc1; assay: (§4) Activation of N-terminal (His)6 and Xpress-tagged LTA4H (unknown origin) expressed in Escherichia coli BL21(DE3) cells assessed as increase in aminopeptidase activity by measuring Kcat/Km ratio for p-nitroanilide release at 0.1 uM using L-Alanine-p-nitroanilide incubated for 10 mins by UV plate reader based assay
[15] = compound: COc1ccc(Cc2ccccc2)cc1; assay: as §4
[16] = compound: Cc1ccc(Cc2ccc(-c3csc(N)n3)cc2)cc1; assay: as §4
[17] = compound: Nc1nc(-c2ccc(Cc3ccc(C(F)(F)F)cc3)cc2)cs1; assay: as §4
[18] = compound: Nc1nc(-c2ccc(Cc3ccccc3)cc2)cs1; assay: as §4
[19] = compound: COc1ccc(Cc2ccc(-c3csc(N)n3)cc2)cc1; assay: (§5) Activation of N-terminal (His)6 and Xpress-tagged LTA4H (unknown origin) expressed in Escherichia coli BL21(DE3) cells assessed as increase in aminopeptidase activity by measuring Kcat/Km ratio for p-nitroanilide release at 0.5 uM using L-Alanine-p-nitroanilide incubated for 10 mins by UV plate reader based assay
[20] = compound: COc1ccc(Cc2ccccc2)cc1; assay: as §5
[21] = compound: Cc1ccc(Cc2ccc(-c3csc(N)n3)cc2)cc1; assay: as §5
[22] = compound: Nc1nc(-c2ccc(Cc3ccc(C(F)(F)F)cc3)cc2)cs1; assay: as §5
[23] = compound: Nc1nc(-c2ccc(Cc3ccccc3)cc2)cs1; assay: as §5
[24] = compound: COc1ccc(Cc2ccc(-c3csc(N)n3)cc2)cc1; assay: (§6) Activation of N-terminal (His)6 and Xpress-tagged LTA4H (unknown origin) expressed in Escherichia coli BL21(DE3) cells assessed as increase in aminopeptidase activity by measuring Kcat/Km ratio for p-nitroanilide release at 1 uM using L-Alanine-p-nitroanilide incubated for 10 mins by UV plate reader based assay
[25] = compound: COc1ccc(Cc2ccccc2)cc1; assay: as §6
[26] = compound: Cc1ccc(Cc2ccc(-c3csc(N)n3)cc2)cc1; assay: as §6
[27] = compound: Nc1nc(-c2ccc(Cc3ccc(C(F)(F)F)cc3)cc2)cs1; assay: as §6
[28] = compound: Nc1nc(-c2ccc(Cc3ccccc3)cc2)cs1; assay: as §6
[29] = compound: COc1ccc(Cc2ccc(-c3csc(N)n3)cc2)cc1; assay: (§7) Activation of N-terminal (His)6 and Xpress-tagged LTA4H (unknown origin) expressed in Escherichia coli BL21(DE3) cells assessed as increase in aminopeptidase activity by measuring Kcat/Km ratio for p-nitroanilide release at 5 uM using L-Alanine-p-nitroanilide incubated for 10 mins by UV plate reader based assay
[30] = compound: COc1ccc(Cc2ccccc2)cc1; assay: as §7
[31] = compound: Cc1ccc(Cc2ccc(-c3csc(N)n3)cc2)cc1; assay: as §7
[32] = compound: Nc1nc(-c2ccc(Cc3ccc(C(F)(F)F)cc3)cc2)cs1; assay: as §7
[33] = compound: Nc1nc(-c2ccc(Cc3ccccc3)cc2)cs1; assay: as §7
[34] = compound: COc1ccc(Cc2ccc(-c3csc(N)n3)cc2)cc1; assay: (§8) Activation of N-terminal (His)6 and Xpress-tagged LTA4H (unknown origin) expressed in Escherichia coli BL21(DE3) cells assessed as increase in aminopeptidase activity by measuring Kcat/Km ratio for p-nitroanilide release at 10 uM using L-Alanine-p-nitroanilide incubated for 10 mins by UV plate reader based assay
[35] = compound: COc1ccc(Cc2ccccc2)cc1; assay: as §8
[36] = compound: Cc1ccc(Cc2ccc(-c3csc(N)n3)cc2)cc1; assay: as §8
[37] = compound: Nc1nc(-c2ccc(Cc3ccc(C(F)(F)F)cc3)cc2)cs1; assay: as §8
[38] = compound: Nc1nc(-c2ccc(Cc3ccccc3)cc2)cs1; assay: as §8

B1: Leukotriene A-4 hydrolase (Homo sapiens), P09960 (protein)
chain: MPEIVDTCSLASPASVCRTKHLHLRCSVDFTRRTLTGTAALTVQSQEDNLRSLVLDTKDLTIEKVVINGQEVKYALGERQSYKGSPMEISLPIALSKNQEIVIEISFETSPKSSALQWLTPEQTSGKEHPYLFSQCQAIHCRAILPCQDTPSVKLTYTAEVSVPKELVALMSAIRDGETPDPEDPSRKIYKFIQKVPIPCYLIALVVGALESRQIGPRTLVWSEKEQVEKSAYEFSETESMLKIAEDLGGPYVWGQYDLLVLPPSFPYGGMENPCLTFVTPTLLAGDKSLSNVIAHEISHSWTGNLVTNKTWDHFWLNEGHTVYLERHICGRLFGEKFRHFNALGGWGELQNSVKTFGETHPFTKLVVDLTDIDPDVAYSSVPYEKGFALLFYLEQLLGGPEIFLGFLKAYVEKFSYKSITTDDWKDFLYSYFKDKVDVLNQVDWNAWLYSPGLPPIKPNYDMTLTNACIALSQRWITAKEDDLNSFNATDLKDLSSHQLNEFLAQTLQRAPLPLGHIKRMQEVYNFNAINNSEIRFRWLRLCIQSKWEDAIPLALKMATEQGRMKFTRPLFKDLAAFDKSHDQAVRTYQEHKASMHPVTAMLVGKDLKVD
B1 showed a Km [1] of 2.87 mM, a Km [2] of 5.94 mM and a Km [3] of 4.04 mM. The Km [4] was 6.77 mM, the Km [5] was 1.52 mM and the Km [6] was 2.92 mM. The Km [7] was 10.3 mM, the Km [8] was 4.72 mM and the Km [9] was 6.6 mM. It also gave a Km [10] of 1.75 mM, a Km [11] of 3.12 mM and a Km [12] of 10.1 mM. It also gave a Km [13] of 4.03 mM, a kcat/Km [14] of 4870 M⁻¹ s⁻¹ and a kcat/Km [15] of 3070 M⁻¹ s⁻¹. The kcat/Km [16] was 6380 M⁻¹ s⁻¹, the kcat/Km [17] was 840 M⁻¹ s⁻¹ and the kcat/Km [18] was 4440 M⁻¹ s⁻¹. The kcat/Km [19] was 6180 M⁻¹ s⁻¹, the kcat/Km [20] was 6060 M⁻¹ s⁻¹ and the kcat/Km [21] was 10100 M⁻¹ s⁻¹. It also gave a kcat/Km [22] of 1210 M⁻¹ s⁻¹, a kcat/Km [23] of 7070 M⁻¹ s⁻¹ and a kcat/Km [24] of 6740 M⁻¹ s⁻¹. The kcat/Km [25] was 8460 M⁻¹ s⁻¹, the kcat/Km [26] was 11300 M⁻¹ s⁻¹ and the kcat/Km [27] was 1390 M⁻¹ s⁻¹. The kcat/Km [28] was 7890 M⁻¹ s⁻¹, the kcat/Km [29] was 6680 M⁻¹ s⁻¹ and the kcat/Km [30] was 15700 M⁻¹ s⁻¹. It also gave a kcat/Km [31] of 11700 M⁻¹ s⁻¹, a kcat/Km [32] of 2030 M⁻¹ s⁻¹ and a kcat/Km [33] of 8940 M⁻¹ s⁻¹. The kcat/Km [34] was 6680 M⁻¹ s⁻¹, the kcat/Km [35] was 17300 M⁻¹ s⁻¹ and the kcat/Km [36] was 11400 M⁻¹ s⁻¹. For the same protein, the kcat/Km [37] was 2300 M⁻¹ s⁻¹ and the kcat/Km [38] was 9810 M⁻¹ s⁻¹.

Source: ChEMBL document CHEMBL4414660, “Effect of Modifier Structure on the Activation of Leukotriene A4 Hydrolase Aminopeptidase Activity” (J Med Chem, 2019)
